This note sets out measurements from the DeepSol protein solubility set.

This data set is described as follows: soluble on expression in E. coli; label from the status in PepcDB or PDB records.
For the sequence “MIGFLSDRQGFEKQYHDIDLSSFGIREGISEIIASTGFEHPNAAPIGIVMKGERPFVRLFKGSHTWENVLKEKCLASNVVYDPILFVRSTFSDLVPSEFEYVDAGEFKFPVLKEAIAWVVFECINLRNTDQSLVADLVPLNAGFNERNIKELPVPNRGFNAVLEATVHATRYQLTGEEKYLELIRHYESLASKCGGDAEKKAMKLIYEALGLLEHHHHHH”, the “soluble on expression in E. coli” value is given as “not soluble”.

In the case of “MTITPPTPNGDLHIGHIAGPFLAADVFTRVQRQRGHDCVLVSYSDDYQSYMLRKGLEQGVDPVVLAHRNSDRIEASLAAINIKPDNWMRPHNNPWFAEAVGEVFTALRDAGAIEFRDSSEPYCPDCAVWGYEAFARGQCNYCGAESDASQCENCAQAPDAELMSGLHCKLCQQPSQWKTAHRAFLKLADFKPQLGNRLLGQAWRKPLDSWLRDTLEHLHDWGVTRPGDGGLDLQADGACRVHTWFMGLAGYMAAFREYADSIGRPELFGQYWQSGQGTLVHFLGFDCVFSHAIVYPAQLSVLQGIKVRQRFVPNQFLKLDGLNLSTSRNHAIWVGDLARQACADSARLYLASIAPEDSEGDFRMTHFFEWREELFNGF”, the “soluble on expression in E. coli” value is reported as “not soluble”.

Turning to “MTGRTGGNGSTQAQPERVMLVGVMLDKDGTGSSAARLNGFQTALAEAVELVKAAGGDSVRVETAKRDRPHTALFVGTGKAAELSEAVAADGIDLVVFNHELTPTQERNLEKELKCRVLDRVGLILAIFARRARTQEGRLQVELAQLSHLAGRLIRGYGHLQSQRGGIGMKGPGETKLETDRRLIAHRINALKKQLANLKKQRALRRKSRESGTIKTFALVGYTNVGKSSLFNRLTKSGIYAKDQLFATLDTTARRLYISPECSIILTDTVGFVSDLPHKLISAFSATLEETAQADVLLHVVDAAAPNSGQQIEDVENVLQEIHAGDIPCIKVYNKTDLLPSEEQNTGIWRDAAGKIAAVRISVAENTGIDALREAIAESCAAAPLEHHHHHH”, the “soluble on expression in E. coli” value was “not soluble”.

Regarding “MGSDKIHHHHHHMNGTATGPRSSHFHWLLCALIVALPGCRDKPLREVIDRPVLFTEIADPQNASYGRFAGSIQPQHEVALGFRIAGRLATRHAEMGDRVRKGDLLATLDPSDQQNRLRARQAELSRARSAWQQLSDEQTRYQQLYTRGVGSRARLDQLNSDLRSQNALLDQASAAVQQAGDHLAYTRLTAEFDGLVTQWQTEVGQVMATGQAVVSLARPESREAVVDLPVGLLASLDDSRQIRVISQLDKQVSVIASVRQLAPQIDAGTRTQRVRLALQHIPDSLRLGSTVTVEISGNAPAFHELPASAVLARDGKDQVWVIDPSTSTLSPRAVQVLARKGGKVQVSGELHEGEKVVTAGVNGMQSGQKIRMQREVSL”, the “soluble on expression in E. coli” value is on record as “not soluble”.

As to “MIEYAALKFNVVSDPMSETAKKVIVGMSGGVDSSVSAWLLQQQGYQVEGLFMKNWEEDDGEEYCTAAADLADAQAVCDKLGIELHTVNFAAEYWDNVFELFLAEYKAGRTPNPDILCNKEIKFKAFLEFAAEDLGADYIATGHYVRRADVDGKSRLLRGLDSNKDQSYFLYTLSHEQIAQSLFPVGELEKPQVRKIAEDLGLVTAKKKDSTGICFIGERKFREFLGRYLPAQPGKIITVDGDEIGEHQGLMYHTLGQRKGLGIGGTKEGTEEPWYVVDKDVENNILVVAQGHEHPRLMSVGLIAQQLHWVDREPFTGTMRCTVKTRYRQTDIPCTVKALDDDRIKVIFDEPVAAVTPGQSAVFYNGEVCLGGGIIEQRLPLPV”, the “soluble on expression in E. coli” value is “not soluble”.

Turning to “MSVKLRLPQSAYPIFDRIEEMAWARHYQQIVREEKETELADDLEKGLPQHLFESLCIDHLQRHGANKQAISHAFDDDVEFQERMAEHIRYMAETIAHHQVDIDLEDLEHHHHHH”, the “soluble on expression in E. coli” value is reported as “not soluble”.

In the case of “MWSFRAWRRRRLLARHPVAEELWQRVRRHLPILDGLDADEDRRLRERAVLFLADKHLTALAGVDLDDFGRLLLAAQAQLPLLHLPELNWYQGFHELVLYPDDFVSPQKHRDASGVVHEFDDERSGETSLQGPVVLAWPGVVGGGGWDAYNLVIHELAHKLDMLNGDANGLPPLHAGMRIGDWASAMQAAYDEMNALLDRDPDAQTAIDPYAAEDPAEFFAVTSEYFFTAPDLLHEAYPAVYRQLQLFYRQDPLQRLRRLQAEHPDYREAAGDTTNG”, the “soluble on expression in E. coli” value is on record as “not soluble”.

On to “MSSAKHFTEVLIGGKVYTLSGFEGEEYLQKVSSYLNHKITECANSEGYRKQSADTRNVLLALNIADDYFKAKKQGDSLESDIELKDKEMYDLKHELISVQIKLENAEKELAKMKEENNDLQMQIVKLETEMKNRRK”, for which the “soluble on expression in E. coli” value is “not soluble”.

With “MSQLRADKKGTHRVAFDRNKKKLLKAATVCGICGKPVDKSLKYPHPLSAAIDHIVPIAKGGHPSALENLQLTHWQCNRQKSDKLFANQASNEPKTIGNRNLPQSRDWSSFAFKKLEHHHHHH”, the “soluble on expression in E. coli” value is “soluble”.

“AHHHHHHGSALSDKLDLVNPSEIRKLFDLAAGMKDVISLGIGEPDFDTPAHIKEYAKEGLDKGLTHYGPNVGLPELREAIAEKLKKQNGIEADPNSEIMVLVGANQAFLMSLATFLKDGEEVLIPSPMFVSYAPAVILAGGKPVEVPTYEDNEFRINVDDLKKHVSEKTRALIINSPNNPTGAVLTKKDLEEIADFANEHDLMIISDEVYEHFIYDGAKHYSIAALDGMFGRTITVNGFSKTFAMTGWRLGFVVAPSWVIEKMVKFQMYNATCPVTFIQYAAAKALRDERSWKAVEEMRKEYERRRNLVWKRLNEMGLPTVEPKGAFYIFPRIKDTGLSSKEFSELMLMEAKVAVVPGSAFGRAGEGYIRISYATAYEKLEEAMNRMEKVLKEKKLI”: the “soluble on expression in E. coli” value was “soluble”.

As to “MSLGLIVQKFGGTSVGSVEKIQNAANRAIAEKQKGHQVVVVVSAMGKSTDELVSLAKAISDQPSKREMDMLLATGEQVTISLLSMALQEKGYDAVSYTGWQAGIRTEAIHGNARITDIDTSVLADQLEKGKIVIVAGFQGMTEDCEITTLGRGGSDTTAVALAAALKADKCDIYTDVPGVFTTDPRYVKSARKLEGISYDEMLELANLGAGVLHPRAVEFAKNYQVPLEVRSSTETEAGTLIEEESSMEQNLIVRGIAFEDQITRVTIYGLTSGLTTLSTIFTTLAKRNINVDIIIQTQAEDKTGISFSVKTEDADQTVAVLEEYKDALEFEKIETESKLAKVSIVGSGMVSNPGVAAEMFAVLAQKNILIKMVSTSEIKVSTVVSENDMVKAVESLHDAFELSKHPSAVEGHHHHHH”, the “soluble on expression in E. coli” value was “soluble”.

With “DVTGLATGFRDLDKITTGLHPDQLIILAARPAVGKTAFVLNIAQNVGTKMNRPVAIFSLEMGAESLVDRMLASEGMVDAHNLRTGQLTEQDWQNITLAQGTLADAPIYIDDTPGIKVTEIRARARKLDQELEKGLGLIVIDYLQLITGTRPENRQQEVSDISRQLKILAKELGVPVIALSQLSRGVEQRQDKRPVLSDI”, the “soluble on expression in E. coli” value is reported as “not soluble”.

Turning to “MLGAIIGDLVAWTWERDQSLFYQRLIAPKANISEVGLAVLGVTEPMLRGSSEVEWESLYLHIREIIQRDRITDISPDFNDWTEAGHQAVIPKEVKSVMHLAVSIVGGWCDAPLETTLAYSRRFHGGKEEYYLTQIAEIIYRLRQGATKQEAMEDIHYIKNWKPQGKVSLLGYAHHAWQCFLQSWDFTSALHNAMRCSYGDKHLLGALTGAIAEAMYSCEYGFIKEKYGKGSDTQFMLSLPKELSGLYRVELGLIESNKELLRTFFPKNRALTNVEVWQWFDLPNIVAHKPLSEREYQRIRLSHDTGWDARYGIYWDDGWYYVYCSGFLLNRFRVEEMQDHTYRITRIQYCTQHEEGKAYNALIKALSLDGLDMSAYSQYKD”, the “soluble on expression in E. coli” value is listed as “not soluble”.

Regarding “MSAIPENANVTVLNKNEKKARELIGKLGLKQIPGIIRVTFRKKDNQIYAIEKPEVFRSAGGNYVVFGEAKVDNFTQKLAAAQQQAQASGIMPSNEDVATKSPEDIQADMQAAAEGSVNAAAEEDDEEGEVDAGDLNKDDIELVVQQTNVSKNQAIKALKAHNGDLVNAIMSLSK”, the “soluble on expression in E. coli” value is given as “soluble”.

As to “MQALTTYKCIEKGIVVWLTGLPGSGKTTIATRLADLLQKEGYRVEVLDGDWARTTVSEGAGFTREERLRHLKRIAWIARLLARNGVIVICSFVSPYKQARNMVRRIVEEEGIPFLEIYVKASLEEVIRRDPKGLYKKALKGELENFTGITDPYEPPENPQLVLDTESNTIEHNVSYLYSLVKAVIE”, the “soluble on expression in E. coli” value is “soluble”.
